Data: patent US20220049017A1 (KYMAB, published 2022)
Numbering of substitutions follows the chain as printed. One block for each binder: values may come before it.

Assays:
human PCSK9 reference [1] = target: T1, human PCSK9 reference (human, UniProt Q8NBP7 31-692); assay: ProteOn SPR, captured antibody, pH 5.8; value is the lower detection limit;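 for kon: antibodies captured on a GLC chip coated with anti-human Fc, rate constants from a 1:1 Langmuir fit of the sensorgrams, Kd derived from the fitted rates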
Procedure: (§1) The SPR runs were performed using a GLC chip (Bio-Rad) immobilised with anti-human Fc antibodies. The analyte human antibodies were captured on the chip surface at 2 ug/ml. […] The chip surface was regenerated using two injections of 10 mM Glycine pH 1.5 for 160 seconds at 30 μl/min. The sensorgrams were then fitted with a 1:1 model (Langmuir kinetic model) where ka and kd are fitted and KD was calculated by the ProteOn software.

[2] = target: T2, human PCSK9 D374Y gain-of-function mutant (human, UniProt Q8NBP7 31-692); assay: as above
T2 construct: It was AF647-labelled in the HepG2 cell-based assay and unlabelled in SPR; also called Human PCSK9 GOF; hPCSK9 GOF
Procedure: as §1

human PCSK9 variant b [3] = target: T3, human PCSK9 variant b (human, UniProt Q8NBP7 31-692); assay: as above
T3 construct: also called Human PCSK9 var B; hPCSK9b
Procedure: as §1

human PCSK9 reference [4] = target: T1, human PCSK9 reference; assay: ProteOn SPR, captured antibody, pH 7.6;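 note: antibodies captured via anti-human Fc on a GLC sensor chip, PCSK9 binding sensorgrams fitted to a 1:1 Langmuir model giving on and off rates, with KD derived from them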
Procedure: as §1

[5] = target: T2, human PCSK9 D374Y gain-of-function …; assay: ProteOn SPR, captured antibody, pH 7.6;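 note: antibodies captured via anti-human Fc on a GLC sensor chip, PCSK9 binding sensorgrams fitted to a 1:1 Langmuir model giving on and off rates, with KD derived from them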
Procedure: as §1

human PCSK9 variant b [6] = target: T3, human PCSK9 variant b; assay: ProteOn SPR, captured antibody, pH 7.6;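 note: antibodies captured via anti-human Fc on a GLC sensor chip, PCSK9 binding sensorgrams fitted to a 1:1 Langmuir model giving on and off rates, with KD derived from them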
Procedure: as §1

cynomolgus monkey PCSK9 [7] = target: T4, cynomolgus monkey PCSK9 (cynomolgus monkey, UniProt A8T662 31-692 (Macaca nemestrina entry), limits assumed); assay: ProteOn SPR, captured antibody, pH 7.6;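 note: antibodies captured via anti-human Fc on a GLC sensor chip, PCSK9 binding sensorgrams fitted to a 1:1 Langmuir model giving on and off rates, with KD derived from them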
T4 construct: also called Cyno PCSK9; cynoPCSK9
T4 sequence (A8T662 31-692 limits assumed): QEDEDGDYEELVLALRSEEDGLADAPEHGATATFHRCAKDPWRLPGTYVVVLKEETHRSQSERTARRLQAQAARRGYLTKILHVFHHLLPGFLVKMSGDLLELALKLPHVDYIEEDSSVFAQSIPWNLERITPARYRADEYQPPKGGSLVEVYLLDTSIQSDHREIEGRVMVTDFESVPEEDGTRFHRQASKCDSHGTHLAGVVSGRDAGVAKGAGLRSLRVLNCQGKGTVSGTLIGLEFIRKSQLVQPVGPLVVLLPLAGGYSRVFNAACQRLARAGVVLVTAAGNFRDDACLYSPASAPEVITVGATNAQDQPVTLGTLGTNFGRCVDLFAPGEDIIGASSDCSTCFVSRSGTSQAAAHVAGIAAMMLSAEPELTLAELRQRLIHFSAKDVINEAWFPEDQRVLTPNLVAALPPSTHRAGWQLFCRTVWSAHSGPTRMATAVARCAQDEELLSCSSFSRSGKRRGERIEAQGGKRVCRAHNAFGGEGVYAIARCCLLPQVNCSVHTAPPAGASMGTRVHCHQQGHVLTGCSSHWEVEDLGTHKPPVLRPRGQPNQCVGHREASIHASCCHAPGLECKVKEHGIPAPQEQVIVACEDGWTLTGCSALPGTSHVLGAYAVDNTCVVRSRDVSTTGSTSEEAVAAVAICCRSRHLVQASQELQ
Procedure: as §1

mouse PCSK9 [8] = target: T5, mouse PCSK9 (mouse, UniProt Q80W65 35-694, limits assumed); assay: ProteOn SPR, captured antibody, pH 7.6
T5 construct: also called mPCSK9; PCSK9 mouse
T5 sequence (Q80W65 35-694 limits assumed): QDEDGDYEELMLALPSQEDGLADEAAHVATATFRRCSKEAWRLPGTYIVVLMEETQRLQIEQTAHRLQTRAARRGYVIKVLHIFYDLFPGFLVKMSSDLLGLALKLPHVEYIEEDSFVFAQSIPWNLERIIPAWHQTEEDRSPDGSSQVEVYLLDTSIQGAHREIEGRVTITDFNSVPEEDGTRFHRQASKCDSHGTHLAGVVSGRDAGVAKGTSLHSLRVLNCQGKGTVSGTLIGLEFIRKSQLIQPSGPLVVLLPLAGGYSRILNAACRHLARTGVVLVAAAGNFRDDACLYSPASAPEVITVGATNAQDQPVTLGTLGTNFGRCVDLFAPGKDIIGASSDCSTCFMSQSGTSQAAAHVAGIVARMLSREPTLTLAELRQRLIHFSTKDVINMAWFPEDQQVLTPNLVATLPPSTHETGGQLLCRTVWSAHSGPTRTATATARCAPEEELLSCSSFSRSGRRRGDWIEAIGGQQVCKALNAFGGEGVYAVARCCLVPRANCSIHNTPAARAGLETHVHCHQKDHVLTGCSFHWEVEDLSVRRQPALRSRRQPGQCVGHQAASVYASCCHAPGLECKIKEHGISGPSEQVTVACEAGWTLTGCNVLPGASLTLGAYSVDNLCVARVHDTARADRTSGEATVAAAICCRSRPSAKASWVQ
Procedure: as §1

human PCSK9 variant a [9] = target: T6, human PCSK9 variant a (human, UniProt Q8NBP7 31-692); assay: ProteOn SPR, captured antibody, pH 7.6
T6 construct: also called Human PCSK9 var A; hPCSK9a
Procedure: as §1

human PCSK9 reference [10] = target: T1, human PCSK9 reference; assay: ProteOn SPR, captured antibody, pH 5.8;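 note: antibodies captured on a GLC chip coated with anti-human Fc, rate constants from a 1:1 Langmuir fit of the sensorgrams, Kd derived from the fitted rates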
Procedure: as §1

[11] = target: T2, human PCSK9 D374Y gain-of-function …; assay: ProteOn SPR, captured antibody, pH 5.8;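 note: antibodies captured on a GLC chip coated with anti-human Fc, rate constants from a 1:1 Langmuir fit of the sensorgrams, Kd derived from the fitted rates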
Procedure: as §1

human PCSK9 variant b [12] = target: T3, human PCSK9 variant b; assay: ProteOn SPR, captured antibody, pH 5.8;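 note: antibodies captured on a GLC chip coated with anti-human Fc, rate constants from a 1:1 Langmuir fit of the sensorgrams, Kd derived from the fitted rates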
Procedure: as §1

cynomolgus monkey PCSK9 [13] = target: T4, cynomolgus monkey PCSK9; assay: ProteOn SPR, captured antibody, pH 5.8
Procedure: as §1

mouse PCSK9 [14] = target: T5, mouse PCSK9; assay: ProteOn SPR, captured antibody, pH 5.8
Procedure: as §1

human PCSK9 variant a [15] = target: T6, human PCSK9 variant a; assay: ProteOn SPR, captured antibody, pH 5.8
Procedure: as §1

human PCSK9 reference [16] = target: T1, human PCSK9 reference; assay: ProteOn SPR, captured antibody, pH 5.8; KD cannot be accurately determined
Procedure: as §1

[17] = target: T2, human PCSK9 D374Y gain-of-function …; assay: as above
Procedure: as §1

human PCSK9 variant b [18] = target: T3, human PCSK9 variant b; assay: as above
Procedure: as §1

human PCSK9 variant a [19] = target: T6, human PCSK9 variant a; assay: as above
Procedure: as §1

human PCSK9 variant a [20] = target: T6, human PCSK9 variant a; assay: ProteOn SPR, captured antibody, pH 5.8; value is the lower detection limit; pH 5.8
Procedure: as §1

[21] = target: T2, human PCSK9 D374Y gain-of-function …; assay: cell-based or functional assay

koff (human PCSK9 reference [1]): ≤ 1e-05 s⁻¹
koff [2]: ≤ 1e-05 s⁻¹
koff (human PCSK9 variant b [3]): ≤ 1e-05 s⁻¹
Kd (human PCSK9 reference [4]): 0.176 nM
koff (human PCSK9 reference [4]): 0.000163 s⁻¹
kon (human PCSK9 reference [4]): 924000 M⁻¹ s⁻¹
Kd [5]: 0.136 nM
koff [5]: 0.000129 s⁻¹
kon [5]: 947000 M⁻¹ s⁻¹
Kd (human PCSK9 variant b [6]): 0.193 nM
koff (human PCSK9 variant b [6]): 0.000164 s⁻¹
kon (human PCSK9 variant b [6]): 848000 M⁻¹ s⁻¹
Kd (cynomolgus monkey PCSK9 [7]): 0.0506 nM
koff (cynomolgus monkey PCSK9 [7]): 5.73e-05 s⁻¹
kon (cynomolgus monkey PCSK9 [7]): 1.13e+06 M⁻¹ s⁻¹
Kd (mouse PCSK9 [8]): 2.69 nM
koff (mouse PCSK9 [8]): 0.00192 s⁻¹
kon (mouse PCSK9 [8]): 714000 M⁻¹ s⁻¹
Kd (human PCSK9 variant a [9]): 0.175 nM
koff (human PCSK9 variant a [9]): 0.000157 s⁻¹
kon (human PCSK9 variant a [9]): 894000 M⁻¹ s⁻¹
kon (human PCSK9 reference [10]): 1.5e+06 M⁻¹ s⁻¹
kon [11]: 1.37e+06 M⁻¹ s⁻¹
kon (human PCSK9 variant b [12]): 1.54e+06 M⁻¹ s⁻¹
Kd (cynomolgus monkey PCSK9 [13]): 0.0924 nM
koff (cynomolgus monkey PCSK9 [13]): 0.000121 s⁻¹
kon (cynomolgus monkey PCSK9 [13]): 1.31e+06 M⁻¹ s⁻¹
Kd (mouse PCSK9 [14]): 0.46 nM
koff (mouse PCSK9 [14]): 0.000632 s⁻¹
kon (mouse PCSK9 [14]): 1.38e+06 M⁻¹ s⁻¹
kon (human PCSK9 variant a [15]): 1.25e+06 M⁻¹ s⁻¹
Kd (human PCSK9 reference [16]): < 6.67 pM
Kd [17]: < 7.3 pM
Kd (human PCSK9 variant b [18]): < 6.49 pM
Kd (human PCSK9 variant a [19]): < 8 pM
koff (human PCSK9 variant a [20]): ≤ 1e-05 s⁻¹
B1: CL-148489 (antibody, V domains shown)
VH: EVQLVESGGGLVQPGRSLRLSCTASGFTFADYVMHWVRQTPGKGLEWVSGISWNSYSINYADSVKGRFTISRDNAQNSLYLQMNSLRAEDTALYFCAKDITYDLLTGYNYNYGLDVWGQGTTVTVSS
VL: DIVMTQTPLSLSVTPGQPASISCRSSQSLLHSDGKTYLYWYLQKPGQPPQLLIYEVSNRFSGVPDRFSGSGSGTDFTLKISRVEAEDVGLYYCMQSIQLPLTFGGGTKVEIK
notes: Human antibody with a kappa light chain

Kd (human PCSK9 reference [4]): 0.0929 nM
koff (human PCSK9 reference [4]): 0.000125 s⁻¹
kon (human PCSK9 reference [4]): 1.35e+06 M⁻¹ s⁻¹
Kd [5]: 0.0689 nM
koff [5]: 8.36e-05 s⁻¹
kon [5]: 1.21e+06 M⁻¹ s⁻¹
Kd (human PCSK9 variant b [6]): 0.091 nM
koff (human PCSK9 variant b [6]): 0.000127 s⁻¹
kon (human PCSK9 variant b [6]): 1.39e+06 M⁻¹ s⁻¹
Kd (cynomolgus monkey PCSK9 [7]): 0.0984 nM
koff (cynomolgus monkey PCSK9 [7]): 0.000108 s⁻¹
kon (cynomolgus monkey PCSK9 [7]): 1.1e+06 M⁻¹ s⁻¹
Kd (mouse PCSK9 [8]): 0.273 nM
koff (mouse PCSK9 [8]): 0.000257 s⁻¹
kon (mouse PCSK9 [8]): 941000 M⁻¹ s⁻¹
Kd (human PCSK9 variant a [9]): 0.0998 nM
koff (human PCSK9 variant a [9]): 0.000136 s⁻¹
kon (human PCSK9 variant a [9]): 1.37e+06 M⁻¹ s⁻¹
Kd (human PCSK9 reference [10]): 0.0286 nM
koff (human PCSK9 reference [10]): 4.6e-05 s⁻¹
kon (human PCSK9 reference [10]): 1.6e+06 M⁻¹ s⁻¹
Kd [11]: 0.025 nM
koff [11]: 3.83e-05 s⁻¹
kon [11]: 1.53e+06 M⁻¹ s⁻¹
Kd (human PCSK9 variant b [12]): 0.0262 nM
koff (human PCSK9 variant b [12]): 4.19e-05 s⁻¹
kon (human PCSK9 variant b [12]): 1.6e+06 M⁻¹ s⁻¹
Kd (cynomolgus monkey PCSK9 [13]): 0.0297 nM
koff (cynomolgus monkey PCSK9 [13]): 3.75e-05 s⁻¹
kon (cynomolgus monkey PCSK9 [13]): 1.26e+06 M⁻¹ s⁻¹
Kd (mouse PCSK9 [14]): 0.103 nM
koff (mouse PCSK9 [14]): 0.000137 s⁻¹
kon (mouse PCSK9 [14]): 1.33e+06 M⁻¹ s⁻¹
Kd (human PCSK9 variant a [15]): 0.0309 nM
koff (human PCSK9 variant a [15]): 4.81e-05 s⁻¹
kon (human PCSK9 variant a [15]): 1.56e+06 M⁻¹ s⁻¹
IC50 (read off the curve) [21]: ~4 nM
B2: CL-274698 (antibody, V domains shown)
VH: QVQLQESGPGLVKPSGTLSLTCAVSGGSISSSKWWSWVRQPPGKGLEWIGETHYSGSTNYNPSLKSRVTISVDKSKNQFSLKLRSVTAADTAVYYCARVGATENFWGQGTLVTVSS
VL: EIVLTQSPATLSLSPGERATLSCRASQSVFRYLAWYQQKPGQAPRLLIYDASTRATDIPARFSGSGSGTDFTLTISSLEPEDFAVYYCQQRSNWPPTFGQGTKVEIK
notes: Human antibody with a kappa light chain, derived from a PCSK9 knockout mouse

Kd (cynomolgus monkey PCSK9 [7]): 0.145 nM
Kd (mouse PCSK9 [8]): 0.889 nM
Kd (cynomolgus monkey PCSK9 [13]): 0.164 nM
Kd (mouse PCSK9 [14]): 1.26 nM
B3: CL-274711 (antibody, V domains shown)
VH: QVQLQESGPGLVKPSQTLSLTCTVSGGSISSGGYYWSWIRQHPGKGLEWIGHIFYSGSTYYNPSLKSRVTISVDTSKNQFSLKLNSVTAADTAVYYCASEGGYYDIPDVWGQGTTVTVSS
VL: B2 VL with F30S, R31N, Y49S, T53N, D57G, V85I, P96L, Q100G
notes: Human antibody with a kappa light chain, generated by immunising a PCSK9 knockout mouse
